Paper PMC6941993 (2020)

B1: GP1_(SBAV)–Fc (Fc fusion)
chain: DHPTSCMVNHSTYYVHENKNATWCLEVSVTDVTLLMAEHDRQVLNNLSNCVHPAVEHRSRMVGLLEWIFRALKYDFNHDPTPLCQKQTSTVNETRVQINITEGFGSHGFEDTILQRLGVLFGSRIAFSNIQDLGKKRFLLIRNSTWKNQCEM
B2: GP1_(GTOV)–Fc (Fc fusion)
chain: ELPSLCRVNNSYSLIRLSHNSNQALSVEYVDVHPVLCSSSPTILDNYTQCIKGSPEFDWILGWTIKGLGHDFLRDPRICCEPKKTTNAEFTFQLNLTDSPETHHYRSKIEVGIRHLFGNYITNDSYSKMSVVMRNTTWEGQCSN

Target: stand-alone apical domain (sAD) designed from White-throated woodrat TfR1 (Neotoma albigula (White-throated …, N-linked glycan at Asn251 seen in the crystal)); two putative N-glycosylation sites (Asn204, Asn251), both partially glycosylated)
Experiment: SPR

Binder | Kd
B1 | 63 nM
B2 | 360 nM
